T1: Ptp10D-AP (Drosophila, UniProt P35992 43-1197)
T1 sequence (looked up): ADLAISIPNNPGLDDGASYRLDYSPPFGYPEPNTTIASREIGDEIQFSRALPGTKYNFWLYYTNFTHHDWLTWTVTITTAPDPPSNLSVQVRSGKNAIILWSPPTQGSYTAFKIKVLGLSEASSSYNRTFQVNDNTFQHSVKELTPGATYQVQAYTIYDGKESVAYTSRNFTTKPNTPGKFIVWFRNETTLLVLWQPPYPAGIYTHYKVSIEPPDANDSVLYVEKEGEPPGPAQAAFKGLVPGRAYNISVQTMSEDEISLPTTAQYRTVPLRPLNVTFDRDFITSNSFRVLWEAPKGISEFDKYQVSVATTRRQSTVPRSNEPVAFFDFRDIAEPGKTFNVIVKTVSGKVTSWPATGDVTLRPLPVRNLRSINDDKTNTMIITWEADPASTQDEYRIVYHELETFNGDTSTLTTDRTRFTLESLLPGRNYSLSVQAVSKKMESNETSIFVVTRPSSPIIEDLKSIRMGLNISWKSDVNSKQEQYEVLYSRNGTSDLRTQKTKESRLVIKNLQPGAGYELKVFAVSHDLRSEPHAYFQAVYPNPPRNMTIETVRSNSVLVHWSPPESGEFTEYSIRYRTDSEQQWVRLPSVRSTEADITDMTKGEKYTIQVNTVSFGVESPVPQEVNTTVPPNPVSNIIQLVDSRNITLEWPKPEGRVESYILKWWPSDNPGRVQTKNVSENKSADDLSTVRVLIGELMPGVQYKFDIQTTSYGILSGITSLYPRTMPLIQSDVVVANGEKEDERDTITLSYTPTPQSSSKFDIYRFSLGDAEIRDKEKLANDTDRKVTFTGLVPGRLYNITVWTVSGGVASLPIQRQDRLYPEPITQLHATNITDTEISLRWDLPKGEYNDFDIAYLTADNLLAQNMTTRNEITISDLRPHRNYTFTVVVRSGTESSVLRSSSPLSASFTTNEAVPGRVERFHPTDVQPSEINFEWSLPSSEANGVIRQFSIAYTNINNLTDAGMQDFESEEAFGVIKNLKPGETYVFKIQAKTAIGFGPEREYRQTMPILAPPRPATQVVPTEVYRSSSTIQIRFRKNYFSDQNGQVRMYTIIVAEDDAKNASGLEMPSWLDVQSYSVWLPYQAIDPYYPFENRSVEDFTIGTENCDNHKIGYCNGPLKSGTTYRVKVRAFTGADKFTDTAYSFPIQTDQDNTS

B1: Sas-Fc (Fc fusion, Drosophila, UniProt Q04164 42-1635, looked up)
chain: APAGEDAAATTMPPLDTTTDAPDAVAATTTPATTAAEQSSSISSITTEAADGSTTSTTTTTEAANKSNATETDFTTNVPVASSLPEETSVRSTSIEPITSTEPTTTPRQETEGPDQHMVFSNTEPDQSHIQHIPLRDEHAESSGADDATTEMQRQREQDQQQNELNQISNEQDDVVKDLNNFRHPATLITASNSNSEENVEIESDKQVETTTTAVPAAATSTSTEATGTPPTGTPATSTSTVPNEREEDPYHVHILSENHDRLAEHEDYQMLSTSTEESSTTSTTSTTNSTTESGIVAGIVVSQENKATAEPSTATESTSISTSTTTAATAATSTTSRARAMHMNDPEDEAATTIMPDSESVPVINIVEGQHMLQQEDQKDEEEEGVVKESESSSTTEASTTTTEPSPFVAFAGEGRSAGGGNDIELFLHHNGSTHEQLMDLSDVSMDGDQNEGSSKTESSTTSTTTTTAQPETEMPKIVEITASGDTMQRECLANNKSYKHGELMERDCDERCTCNRGDWMCEPRCRGLSYPRGSQRSMANPNCLEKMVEEDECCRVMECSEPQLEPTVVATEGAAPSTNGTGESAVTLPTTDDEATPKPRTDCHYNSGVYKFRERLEIGCEQICHCAEGGVMDCRPRCPERNHTRLDKCVYVKDPKDVCCQLELCDVTLDDHEQQPTPLQSNNNEDPEEIDPFRFQEQARDAGGAKPTCTFKGAEYDVGQQFRDGCDQLCICNEQGIHCAKLECPSNFGLDVQDPHCIRWEPVPADFKPSPPNCCPESMRCVDNGTCSYQGVQIENWSPVPANLTGCDQHCYCENGRVECRAACPPVPALPPADLPCHPALARLLPIPDDECCKHWMCAPQIPKIGGAGQDEETEATSTHSSIPANETTTTTATANKSTSIPSKVPQIKKDEEKRPPASGAFYPTLDGKPPKSIGGLGIFEKPEKPEKAHKKVQHQQQQHQQQEQQEQQQHQNDVIFDGDRTEEQEEPLPPNGGFVPFQFGQQHPHQPHLGPYGFYNPVKPVYEDYNPYEPYDINPNGTPQGKPPPVPTSQSDLFNILGAEQPGHPVHPGHGGPPRIHPGQTQKDNHNLGPQVRIEQILQHLQQTVPGGPPPPPPHQQHQSLTPQLHPQQQQISQQHPGHYVPIVHSGVPPPPPGHGIAIVDGQTVAYESYPVIPGLGVPQHHPQQHQTTPQQHLQQTILPSSSTTSGLSTQASEHSLHQNQGKLAKQQQSGANNLQPDIEVHTLEAIDPRSIRIVFTVPQVYVNLHGRVELRYSNGPSNDTSTWEQQIFAPPEDLIATSQMEFDLPSLEPNSLYKVKITLILRDLNSQPTSSIYTVKTPPERTITPPPPFPDYRPDFQDIFKNVEDPELTVSETNASWLQLTWKKLGDDQMEYVDGVQLRYKELTGMIYSSTPLIHRTLTSYTIQNLQPDTGYEIGLYYIPLAGHGAELRAGHMIKVRTAQKVDVYGFDVTVNVTKVKTQSVEISWNGVPYPEDKFVHIYRAIYQSDAGKEDSSVFKVAKRDSTTGTLIMDLKPGTKYRLWLEMYLTNGNTKKSNVVNFITKPGGPATPGKTGKLLTAGTDQPVGDYYGPL

Legend:
Dscam 7.13.25 isoform = assay: AlphaScreen or HTRF
Ptp10D-AP = target: T1, Ptp10D-AP; assay: AlphaScreen or HTRF

| Molecule | fold signal of homophilic binding over heterophilic binding of 7.13.25 to 7.8.25 (Dscam 7.13.25 isoform) [fold] | signal-to-background ratio (Sas-Fc::10D-AP vs. Sas-Fc::69D-AP or Sas-Fc::blank) (Ptp10D-AP) [fold] |
| --- | --- | --- |
| Dscam 7.13.25 isoform (natural protein) | 178 | – |
| B1 | – | ~6 |

Reference: paper PMC3683152 (Neuron, 2013)
